This test concerns the target human receptor for C5a (human) (UniProt P21730). As to the kind of experiment: cell-based or functional assay.
Sequence of UniProt P21730 (P21730 whole entry): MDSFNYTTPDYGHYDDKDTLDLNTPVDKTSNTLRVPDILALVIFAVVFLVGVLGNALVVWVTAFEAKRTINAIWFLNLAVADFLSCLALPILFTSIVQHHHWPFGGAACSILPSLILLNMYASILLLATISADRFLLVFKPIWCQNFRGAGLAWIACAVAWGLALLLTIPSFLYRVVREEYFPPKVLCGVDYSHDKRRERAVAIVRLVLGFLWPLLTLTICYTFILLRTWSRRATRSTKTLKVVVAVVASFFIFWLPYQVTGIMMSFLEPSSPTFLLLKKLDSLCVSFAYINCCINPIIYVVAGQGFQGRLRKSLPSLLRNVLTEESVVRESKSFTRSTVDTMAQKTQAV

For “mouse C5a (from UniProt P06684 679-755) (ligand)”, the half effective concentrations (EC50), chemotaxis (migration) of BA/F3/huC5aR cells is 300 pM.

For the substance “recombinant human C5a (from UniProt P01031 678-751) (ligand)”, the half effective concentrations (EC50), chemotaxis (migration) of BA/F3/huC5aR cells came to 100 pM.
